This note sets out measurements from paper PMC12624060, “Structures of human organellar SPFH protein complexes” (Nature Communications, 2025).

Series [1] deals with the molecule itself. Nature of the series: cryo-EM structure; Erlin1/2 complex after tandem affinity purification and SEC, in 50 mM HEPES/KOH pH 7.4, 150 mM NaCl, 0.02% DDM, 0.004% CHS; single-particle map at 3.0 Å, no symmetry applied in the last refinement.
The target of the next series is T1, untagged PHB2 (human, UniProt Q99623 1-299).
T1 construct: PHB2 (prohibitin 2), human; 11 copies in the 22-subunit PHB1/2 complex; source: complex purified on StrepTactin; copies: 11
T1 sequence (Q99623 whole entry): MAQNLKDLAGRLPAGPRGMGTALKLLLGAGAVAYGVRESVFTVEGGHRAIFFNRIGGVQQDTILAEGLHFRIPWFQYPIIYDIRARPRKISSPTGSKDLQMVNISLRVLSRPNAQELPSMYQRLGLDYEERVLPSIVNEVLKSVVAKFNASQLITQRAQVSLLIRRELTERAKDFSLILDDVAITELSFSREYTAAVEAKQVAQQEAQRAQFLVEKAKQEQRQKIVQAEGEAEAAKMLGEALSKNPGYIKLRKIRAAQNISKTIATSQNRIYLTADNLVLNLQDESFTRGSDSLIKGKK
The experiment in a line: cryo-EM structure; PHB1/2 complex after one-step StrepTactin purification, in 20 mM HEPES/KOH pH 7.4, 50 mM K-phosphate, 150 mM KCl, 5 mM magnesium acetate, 5 mM ATP, DDM/CHS; closed (2.4 Å) and open (3.1 Å) conformations, C11 symmetry. The settings on record: both partners purified.

B1: N-terminally Strep-tagged Erlin1 (natural protein, human)
chain: MTQARVLVAAVVGLVAVLLYASIHKIEEGHLAVYYRGGALLTSPSGPGYHIMLPFITTFRSVQTTLQTDEVKNVPCGTSGGVMIYIDRIEVVNMLAPYAVFDIVRNYTADYDKTLIFNKIHHELNQFCSAHTLQEVYIELFDQIDENLKQALQKDLNLMAPGLTIQAVRVTKPKIPEAIRRNFELMEAEKTKLLIAAQKQKVVEKEAETERKKAVIEAEKIAQVAKIRFQQKVMEKETEKRISEIEDAAFLAREKAKADAEYYAAHKYATSNKHKLTPEYLELKKYQAIASNSKIYFGSNIPNMFVDSSCALKYSDIRTGRESSLPSKEALEPSGENVIQNKESTG
modifications: N-linked glycan on N108
notes: Erlin1, human; cDNA in pcDNA5; 13 copies in the 26-subunit Erlin1/2 complex as modelled; source: Expi293F, co-transfected with Erlin2-Flag; complex purified (StrepTactin, anti-FLAG M2, Superose 6) in DDM/CHS; not shown: Strep, N-terminal, kept; copies: 13
As to B1, the binding result in series [1] was “binds”.

B2: C-terminally Flag-tagged Erlin2 (natural protein, human)
chain: MAQLGAVVAVASSFFCASLFSAVHKIEEGHIGVYYRGGALLTSTSGPGFHLMLPFITSYKSVQTTLQTDEVKNVPCGTSGGVMIYFDRIEVVNFLVPNAVYDIVKNYTADYDKALIFNKIHHELNQFCSVHTLQEVYIELFDQIDENLKLALQQDLTSMAPGLVIQAVRVTKPNIPEAIRRNYELMESEKTKLLIAAQKQKVVEKEAETERKKALIEAEKVAQVAEITYGQKVMEKETEKKISEIEDAAFLAREKAKADAECYTAMKIAEANKLKLTPEYLQLMKYKAIASNSKIYFGKDIPNMFMDSAGSVSKQFEGLADKLSFGLEDEPLETATKEN
modifications: N-linked glycan on N106
notes: Erlin2, human; cDNA in pcDNA5; 13 copies in the 26-subunit Erlin1/2 complex as modelled; also called Erlin2-Flag; source: Expi293F, co-transfected with Strep-Erlin1; complex purified (StrepTactin, anti-FLAG M2, Superose 6) in DDM/CHS; not shown: Flag, C-terminal, kept; copies: 13
Regarding B2, the binding result in series [1] was “binds”.

B3: N-terminally Strep-tagged PHB1 (stable Expi293F line) (natural protein, human)
chain: MAAKVFESIGKFGLALAVAGGVVNSALYNVDAGHRAVIFDRFRGVQDIVVGEGTHFLIPWVQKPIIFDCRSRPRNVPVITGSKDLQNVNITLRILFRPVASQLPRIFTSIGEDYDERVLPSITTEILKSVVARFDAGELITQRELVSRQVSDDLTERAATFGLILDDVSLTHLTFGKEFTEAVEAKQVAQQEAERARFVVEKAEQQKKAAIISAEGDSKAAELIANSLATAGDGLIELRKLEAAEDIAYQLSRSRNITYLPAGQSVLLQLPQ
notes: PHB1 (prohibitin 1), human; cDNA in pHAGE; 11 copies in the 22-subunit PHB1/2 complex; also called prohibitin; source: solubilised membranes (DDM/CHS) and complex purified on StrepTactin; not shown: Strep, N-terminal, kept; copies: 11
With B3, the “stoichiometry N” value with untagged PHB2 is 11 heterodimers in the complex.
